The target of series [1] is T1, ANME2c-FsrII-6D (uncultured archaeon, UniProt Z9BHN8L6W9). The experiment in a line: inhibition of F420H2-dependent nitrite reduction, F420H2 oxidation at […] nm. The class given is biochemical, uncultured ANME-2c archaeon. Also noted: gene fsr; full-length two-domain protein (Fsr-N 1-341, Fsr-C 356-642); expressed from pDS701 in Methanosarcina acetivorans WWM60; F420-Sepharose purified, no tag mentioned; siroheme, FAD, about four [Fe4-S4] per subunit. Particulars: read-out: apparent Ki.
T1 sequence (Z9BHN8L6W9 1-642): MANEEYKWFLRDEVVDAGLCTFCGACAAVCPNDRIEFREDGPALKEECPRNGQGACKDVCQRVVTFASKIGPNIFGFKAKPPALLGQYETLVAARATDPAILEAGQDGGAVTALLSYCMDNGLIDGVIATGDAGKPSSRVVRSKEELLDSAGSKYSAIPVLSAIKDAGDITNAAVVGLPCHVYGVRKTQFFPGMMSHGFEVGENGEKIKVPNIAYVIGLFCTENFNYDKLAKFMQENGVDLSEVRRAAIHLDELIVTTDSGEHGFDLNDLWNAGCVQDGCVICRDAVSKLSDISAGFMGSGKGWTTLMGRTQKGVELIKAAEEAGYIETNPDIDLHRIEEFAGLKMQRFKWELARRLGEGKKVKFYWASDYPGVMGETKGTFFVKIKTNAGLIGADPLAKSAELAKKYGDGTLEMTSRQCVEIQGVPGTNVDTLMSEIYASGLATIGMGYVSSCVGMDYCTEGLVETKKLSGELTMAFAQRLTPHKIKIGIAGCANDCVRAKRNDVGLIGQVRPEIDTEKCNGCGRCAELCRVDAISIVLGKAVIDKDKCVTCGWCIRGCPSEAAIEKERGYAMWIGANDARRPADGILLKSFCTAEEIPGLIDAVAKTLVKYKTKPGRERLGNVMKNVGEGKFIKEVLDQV

The next series has as its system O=NO. Description: purified protein. Particulars: 40 μM F420H2, 2-100 μM nitrite, 0.5 mM DTT, pH 7 phosphate, anaerobic, kcat in electrons transferred per subunit.
The test system of another series is T2, O=S(O)O.
T2 construct: full-length two-domain protein (Fsr-N 1-341, Fsr-C 356-642); expressed from pDS701 in Methanosarcina acetivorans WWM60; F420-Sepharose purified, no tag mentioned; siroheme, FAD, about four [Fe4-S4] per subunit
The experiment in a line: purified protein. The class given is biochemical, uncultured ANME-2c archaeon. Particulars: 408 μM reduced methyl viologen, 10-500 μM sulfite, with DTT, pH 7 phosphate, anaerobic, kcat in electrons transferred per subunit.

The test system of series [2] is CN1C=C[C](c2cc[n+](C)cc2)C=C1. Description: purified protein. The class given is biochemical, uncultured ANME-2c archaeon. The conditions noted are these: pH 7.0.
Series [3] addresses T1, ANME2c-FsrII-6D. Description: F420H2 oxidation at […] nm. Also noted: gene fsr. Particulars: read-out: Km (μM) for the varied substrate; 500 μM nitrite, 1-80 μM F420H2, 0.5 mM DTT, pH 7 phosphate, anaerobic; kcat in electrons transferred per subunit.

The record followed here is PMC9295563, “A Reduced F420-Dependent Nitrite Reductase in an Anaerobic Methanotrophic Archaeon” (Journal of Bacteriology, 2022).

Regarding `O=S(O)O` [sulfite], on ANME2c-FsrII-6D [1], the Ki was 130 ± 86 µM.
For the molecule ANME2c-FsrII-6D (uncultured archaeon), in the series with O=NO, the Km amounted to 5 ± 1 µM, the kcat worked out at 0.3 ± 0.0167 s⁻¹ and the kcat/Km is reported as 4 ± 1 (NO2^−). In the series on O=S(O)O, the Km is 129 ± 20 µM, the kcat came to 1.07 ± 0.0667 s⁻¹ and the kcat/Km was 0.5 ± 0.1 (HSO3^−). Besides, in series [2], the Km is 137 ± 26 µM and the kcat/Km is listed as 0.5 ± 0.1 (MV^·+).
For the molecule F420H2, the Km at ANME2c-FsrII-6D [3] was determined as 14 ± 2 µM.

By Km is commonly meant the substrate concentration at which the rate is half of its maximum. As a reminder, the kcat is the number of substrate molecules converted per active site and unit of time at saturation.
